Source: PMC3826599

Legend:
[1] = molecular target: Giardia lamblia macrophage migration inhibitory factor (Giardia lamblia ATCC 50803); assay: crystal structure
[2] = molecular target: Giardia lamblia macrophage migration inhibitory factor (Giardia lamblia ATCC 50803); assay: SEC

## Giardia lamblia macrophage migration inhibitory factor (natural protein)
[1]
  stoichiometry N: 3
[2]
  stoichiometry N: 3
